Assay results taken from US20240287161A1 (NATIONAL UNIVERSITY CORPORATION TOTTORI UNIVERSITY, published 2024).

B1: NT-108 (recombinant human IgG1/kappa antibody) (antibody, V domains shown)
VH: EVQLQQSGPGLVKPSQTLSLTCSISGDSVSSNSAAWNWIRQSPSRGLEWLGRTYYRSKWYNDYAGTVKSRIAINPDTSKNQFSLHLNSVTPEDTAVYFCARVISVAGYAFDIWGQGTMVTVSS
VL: EIVLTQSPGTLSLSPGERATLSCRASQSVSSTFLAWYQQKPGQAPRLLIYGASYMATGIPDRFSGSGSGTDFTLTISRLEPEDFAVYYCQQYGSSLTFGGGTKLEIK
B2: NT-193 (recombinant human IgG1/kappa antibody) (antibody, V domains shown)
VH: EVQLQQWGAGLLKPSETLSLTCAVYGGSFSGYYWSWIRQPPGKGLEWIGEINHSGSTNYNPSLKSRVTISVDTSKNQFSLKLSSVTAADTAVYYCARGWDLDYYYGMDVWGQGTTVTVSS
VL: DIRMTQSPSAMSASVGDRVTVTCRASQGIGNYLAWFQLKPGKVPKRLIYAASSLQSGVPARFSGGGSGTEFTLTISSLQPEDFATYYCLQHGFLPWTFGQGTKLEIK

Assays:
[1] = molecular target: T1, HCoV-229E trimeric S protein (amino acids 12-1109) with T4 foldon, histidine tag and strep-tag (HCoV-229E, UniProt P15423 12-1112); test: ELISA on coated S-trimeric antigen, anti-human IgG-HRP [Human IgG1, NT-108]
T1 chain: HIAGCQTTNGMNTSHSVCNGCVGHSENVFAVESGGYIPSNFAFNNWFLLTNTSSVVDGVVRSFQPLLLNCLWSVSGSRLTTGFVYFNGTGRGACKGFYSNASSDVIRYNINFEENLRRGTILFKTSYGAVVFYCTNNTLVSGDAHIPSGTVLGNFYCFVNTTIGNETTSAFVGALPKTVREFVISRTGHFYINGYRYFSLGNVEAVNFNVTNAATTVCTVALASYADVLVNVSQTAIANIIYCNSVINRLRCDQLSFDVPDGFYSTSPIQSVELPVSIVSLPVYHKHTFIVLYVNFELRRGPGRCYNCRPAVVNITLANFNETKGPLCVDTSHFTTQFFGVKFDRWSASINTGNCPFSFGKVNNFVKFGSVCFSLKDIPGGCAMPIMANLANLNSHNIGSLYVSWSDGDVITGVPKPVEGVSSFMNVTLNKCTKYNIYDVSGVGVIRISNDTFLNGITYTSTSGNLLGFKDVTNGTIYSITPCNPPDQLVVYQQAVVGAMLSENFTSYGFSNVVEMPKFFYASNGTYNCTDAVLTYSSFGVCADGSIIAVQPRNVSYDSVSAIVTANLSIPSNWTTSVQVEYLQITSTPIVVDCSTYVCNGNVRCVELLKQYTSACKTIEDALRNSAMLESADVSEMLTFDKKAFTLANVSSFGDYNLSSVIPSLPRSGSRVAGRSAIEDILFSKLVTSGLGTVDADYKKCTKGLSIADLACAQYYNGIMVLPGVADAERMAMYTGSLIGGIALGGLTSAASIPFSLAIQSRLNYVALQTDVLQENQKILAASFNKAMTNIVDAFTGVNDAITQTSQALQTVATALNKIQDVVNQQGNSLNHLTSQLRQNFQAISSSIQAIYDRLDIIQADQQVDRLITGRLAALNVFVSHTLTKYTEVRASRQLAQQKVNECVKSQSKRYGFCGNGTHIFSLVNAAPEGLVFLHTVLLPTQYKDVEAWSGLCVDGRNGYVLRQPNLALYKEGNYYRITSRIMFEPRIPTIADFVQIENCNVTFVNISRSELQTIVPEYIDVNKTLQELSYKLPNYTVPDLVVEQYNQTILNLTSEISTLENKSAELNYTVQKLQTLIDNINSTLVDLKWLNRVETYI

[2] = molecular target: T2, HCoV-HKU1 trimeric S protein (amino acids 13-1293) with T4 foldon, histidine tag and strep-tag (HCoV-HKU1, UniProt Q5MQD0 13-1297); test: ELISA on coated S-trimeric antigen, anti-human IgG-HRP [Human IgG1, NT-193]
T2 sequence: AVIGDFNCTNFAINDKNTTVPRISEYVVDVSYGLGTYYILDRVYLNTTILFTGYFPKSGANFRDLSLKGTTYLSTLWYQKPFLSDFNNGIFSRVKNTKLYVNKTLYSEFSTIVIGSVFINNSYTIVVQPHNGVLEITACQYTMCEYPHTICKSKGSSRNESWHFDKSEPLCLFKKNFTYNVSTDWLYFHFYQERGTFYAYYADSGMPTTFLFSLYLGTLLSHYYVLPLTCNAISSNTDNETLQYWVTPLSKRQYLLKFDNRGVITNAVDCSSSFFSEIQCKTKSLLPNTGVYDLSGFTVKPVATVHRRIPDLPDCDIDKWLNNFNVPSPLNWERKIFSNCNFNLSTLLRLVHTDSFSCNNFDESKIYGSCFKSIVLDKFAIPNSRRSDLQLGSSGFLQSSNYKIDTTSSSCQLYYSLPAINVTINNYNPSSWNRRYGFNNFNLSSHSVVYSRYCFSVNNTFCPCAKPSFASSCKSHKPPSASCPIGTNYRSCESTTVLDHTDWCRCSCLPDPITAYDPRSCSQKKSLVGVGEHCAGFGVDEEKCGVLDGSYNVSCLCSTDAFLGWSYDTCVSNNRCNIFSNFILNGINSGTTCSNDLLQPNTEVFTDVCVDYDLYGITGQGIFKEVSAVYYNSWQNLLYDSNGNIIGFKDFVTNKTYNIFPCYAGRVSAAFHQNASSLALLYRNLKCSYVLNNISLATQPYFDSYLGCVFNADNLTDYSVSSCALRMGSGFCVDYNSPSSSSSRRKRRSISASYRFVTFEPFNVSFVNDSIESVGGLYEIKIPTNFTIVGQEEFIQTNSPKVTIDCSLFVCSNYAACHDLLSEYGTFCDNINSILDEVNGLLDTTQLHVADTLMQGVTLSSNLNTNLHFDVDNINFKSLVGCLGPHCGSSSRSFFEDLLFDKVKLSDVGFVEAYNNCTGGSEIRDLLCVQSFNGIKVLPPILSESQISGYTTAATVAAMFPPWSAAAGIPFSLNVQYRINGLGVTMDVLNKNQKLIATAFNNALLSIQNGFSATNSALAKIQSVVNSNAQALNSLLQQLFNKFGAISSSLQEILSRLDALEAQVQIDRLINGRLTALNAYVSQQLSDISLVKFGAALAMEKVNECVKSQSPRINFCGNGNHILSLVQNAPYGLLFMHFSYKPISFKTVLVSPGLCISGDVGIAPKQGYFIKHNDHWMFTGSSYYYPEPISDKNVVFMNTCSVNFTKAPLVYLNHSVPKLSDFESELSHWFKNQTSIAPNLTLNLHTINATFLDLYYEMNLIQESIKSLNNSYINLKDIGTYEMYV

[3] = molecular target: T1, HCoV-229E trimeric S protein (amino …); test: as above

| Binder | binding result [1] | binding result [2] | binding result [3] |
| --- | --- | --- | --- |
| B1 | no binding (tested: 1000 ng/ml) |  |  |
| B2 |  | no binding (tested: 1000 ng/ml) | no binding (tested: 1000 ng/ml) |
